Assay results taken from patent US20240043507A1.

target: SARS-CoV-2 spike receptor binding domain (native RBD) (SARS-CoV-2) (UniProt P0DTC2); test: not given

Substance | Kd [nM]
AZD1061 (antibody) | 1.04
AZD8895 (antibody) | 1.49
REGN10933 (antibody) | 1.82
REGN10987 (antibody) | 3.85

target: SARS-CoV-2 receptor binding domain, native (501N) (SARS-CoV-2) (UniProt P0DTC2); test: BLI, RBD immobilised on AR2G biosensor, 1:1 fit

Substance | Kd [nM]
AZD1061 as tested by BLI (Fab by the footnote of Table 12) | 1.04
AZD8895 as tested by BLI (Fab by the footnote of Table 12) | 1.49
REGN10933 as tested by BLI (Fab by the footnote of Table 12) | 1.82
REGN10987 as tested by BLI (Fab by the footnote of Table 12) | 3.85
